Results from paper PMC4358367, “Structural basis of diverse membrane target recognitions by ankyrins” (eLife, 2014).
Each block holds one binder with its values, some of them ahead of it.

Experiments:
[1] = target: T1, AnkR_repeats (24 ANK repeats of ankyrin-R, residues 42–853) (mouse, UniProt Q02357-6 42-853); assay: ITC; VP-ITC at 25°C; 50 mM Tris pH 7.5, 100 mM NaCl, 1 mM EDTA, 1 mM DTT; binding partner (AS, Nav1.2 ABD proteins, neurofascin ABD; 200–300 µM) in the syringe, ANK repeats (20–30 µM) in the cell; one-site binding model; conditions: both partners purified
T1 construct: ankyrin-R (AnkR), mouse, ANK repeats, residues 42-853, PCR amplified from a mouse muscle cDNA library; The thioredoxin-His6 tag was removed with HRV 3C protease 'when needed'; also called AnkR ANK repeats; source: E. coli BL21 (DE3), purified
T1 sequence (looked up): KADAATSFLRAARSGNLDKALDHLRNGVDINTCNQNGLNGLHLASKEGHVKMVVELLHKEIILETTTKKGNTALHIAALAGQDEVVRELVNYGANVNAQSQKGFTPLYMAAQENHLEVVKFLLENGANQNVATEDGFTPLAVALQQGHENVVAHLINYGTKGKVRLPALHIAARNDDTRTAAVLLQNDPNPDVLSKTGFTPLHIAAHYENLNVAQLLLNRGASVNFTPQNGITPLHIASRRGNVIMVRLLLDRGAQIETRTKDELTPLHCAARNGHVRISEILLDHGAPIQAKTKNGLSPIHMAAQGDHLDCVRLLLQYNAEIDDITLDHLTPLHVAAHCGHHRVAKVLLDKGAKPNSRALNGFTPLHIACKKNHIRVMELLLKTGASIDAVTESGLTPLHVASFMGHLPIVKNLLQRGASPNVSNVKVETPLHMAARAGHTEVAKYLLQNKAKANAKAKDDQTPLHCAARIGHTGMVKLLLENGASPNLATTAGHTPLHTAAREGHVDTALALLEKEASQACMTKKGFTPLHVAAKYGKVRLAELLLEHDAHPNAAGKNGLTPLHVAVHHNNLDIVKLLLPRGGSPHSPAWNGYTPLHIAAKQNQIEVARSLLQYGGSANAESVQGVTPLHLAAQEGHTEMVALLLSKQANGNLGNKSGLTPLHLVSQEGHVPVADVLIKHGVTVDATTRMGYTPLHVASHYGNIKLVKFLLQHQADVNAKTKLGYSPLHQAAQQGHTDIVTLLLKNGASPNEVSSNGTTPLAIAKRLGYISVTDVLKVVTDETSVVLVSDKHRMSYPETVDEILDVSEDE

[2] = target: T2, AnkG_repeats (24 ANK repeats of rat 190 kDa ankyrin-G, residues 38–855) (rat, UniProt O70511 38-855); assay: ITC
T2 chain: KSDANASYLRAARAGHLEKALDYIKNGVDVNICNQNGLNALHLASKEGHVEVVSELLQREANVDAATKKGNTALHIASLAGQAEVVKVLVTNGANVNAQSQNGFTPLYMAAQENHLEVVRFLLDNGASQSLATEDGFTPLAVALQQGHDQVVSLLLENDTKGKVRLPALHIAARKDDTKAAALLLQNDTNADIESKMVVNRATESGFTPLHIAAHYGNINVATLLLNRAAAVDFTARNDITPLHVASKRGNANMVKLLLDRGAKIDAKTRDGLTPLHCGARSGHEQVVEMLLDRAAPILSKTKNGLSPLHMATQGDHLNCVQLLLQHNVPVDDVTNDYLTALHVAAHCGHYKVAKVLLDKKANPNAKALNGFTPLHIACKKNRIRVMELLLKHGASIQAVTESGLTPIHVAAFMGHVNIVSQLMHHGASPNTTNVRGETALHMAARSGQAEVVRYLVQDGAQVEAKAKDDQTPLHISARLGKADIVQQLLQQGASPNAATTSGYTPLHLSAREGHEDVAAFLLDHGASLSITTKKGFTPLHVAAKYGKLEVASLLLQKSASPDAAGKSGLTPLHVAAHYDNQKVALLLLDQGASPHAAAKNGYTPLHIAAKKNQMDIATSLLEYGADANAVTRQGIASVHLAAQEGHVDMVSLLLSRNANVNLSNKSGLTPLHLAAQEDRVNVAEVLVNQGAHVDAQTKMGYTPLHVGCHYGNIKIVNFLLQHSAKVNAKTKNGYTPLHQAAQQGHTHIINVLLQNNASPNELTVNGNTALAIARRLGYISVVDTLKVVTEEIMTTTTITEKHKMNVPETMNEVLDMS

[3] = target: T3, AnkB_repeats (24 ANK repeats of human 220 kDa ankyrin-B, residues 28–873) (human, UniProt Q01484 28-873); assay: ITC; VP-ITC at 25°C; 50 mM Tris pH 7.5, 100 mM NaCl, 1 mM EDTA, 1 mM DTT; binding partner (AS, Nav1.2 ABD proteins, neurofascin ABD; 200–300 µM) in the syringe, ANK repeats (20–30 µM) in the cell; one-site binding model; conditions: both partners purified
T3 construct: ankyrin-B (AnkB), human, 220 kDa isoform used as template, ANK repeats, residues 28-873; source: E. coli BL21 (DE3), purified
T3 sequence (looked up): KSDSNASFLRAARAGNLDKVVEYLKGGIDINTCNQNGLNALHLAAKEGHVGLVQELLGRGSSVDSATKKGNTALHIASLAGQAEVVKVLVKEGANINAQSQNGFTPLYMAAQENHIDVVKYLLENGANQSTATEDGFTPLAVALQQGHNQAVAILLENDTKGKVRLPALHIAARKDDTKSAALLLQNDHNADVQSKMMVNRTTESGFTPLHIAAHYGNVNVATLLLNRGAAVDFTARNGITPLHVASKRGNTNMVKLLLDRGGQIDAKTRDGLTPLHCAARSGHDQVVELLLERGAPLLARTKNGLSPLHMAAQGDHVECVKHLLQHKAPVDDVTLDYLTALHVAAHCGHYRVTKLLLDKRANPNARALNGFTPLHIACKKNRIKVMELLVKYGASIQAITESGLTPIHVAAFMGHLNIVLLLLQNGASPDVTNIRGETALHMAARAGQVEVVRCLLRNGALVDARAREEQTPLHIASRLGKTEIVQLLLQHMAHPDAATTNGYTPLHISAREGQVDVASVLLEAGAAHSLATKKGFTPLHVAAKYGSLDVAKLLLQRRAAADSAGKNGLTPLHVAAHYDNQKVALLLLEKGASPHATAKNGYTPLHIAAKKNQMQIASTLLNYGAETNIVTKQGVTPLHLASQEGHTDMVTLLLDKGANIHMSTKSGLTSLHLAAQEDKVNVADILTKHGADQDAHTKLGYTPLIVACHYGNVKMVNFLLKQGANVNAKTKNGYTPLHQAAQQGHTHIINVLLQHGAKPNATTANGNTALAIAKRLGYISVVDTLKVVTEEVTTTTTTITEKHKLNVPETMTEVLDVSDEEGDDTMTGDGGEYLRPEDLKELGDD

[4] = target: T4, AnkG_repeats (24 ANK repeats of rat 190 kDa ankyrin-G, residues 38–855) (rat, UniProt O70511 38-855); assay: as above; conditions: both partners purified
T4 construct: ankyrin-G (AnkG), rat, 190 kDa isoform used as template, ANK repeats, residues 38-855; also called AnkG ANK repeats; wild-type ANK repeats; source: E. coli BL21 (DE3), purified
T4 sequence (looked up): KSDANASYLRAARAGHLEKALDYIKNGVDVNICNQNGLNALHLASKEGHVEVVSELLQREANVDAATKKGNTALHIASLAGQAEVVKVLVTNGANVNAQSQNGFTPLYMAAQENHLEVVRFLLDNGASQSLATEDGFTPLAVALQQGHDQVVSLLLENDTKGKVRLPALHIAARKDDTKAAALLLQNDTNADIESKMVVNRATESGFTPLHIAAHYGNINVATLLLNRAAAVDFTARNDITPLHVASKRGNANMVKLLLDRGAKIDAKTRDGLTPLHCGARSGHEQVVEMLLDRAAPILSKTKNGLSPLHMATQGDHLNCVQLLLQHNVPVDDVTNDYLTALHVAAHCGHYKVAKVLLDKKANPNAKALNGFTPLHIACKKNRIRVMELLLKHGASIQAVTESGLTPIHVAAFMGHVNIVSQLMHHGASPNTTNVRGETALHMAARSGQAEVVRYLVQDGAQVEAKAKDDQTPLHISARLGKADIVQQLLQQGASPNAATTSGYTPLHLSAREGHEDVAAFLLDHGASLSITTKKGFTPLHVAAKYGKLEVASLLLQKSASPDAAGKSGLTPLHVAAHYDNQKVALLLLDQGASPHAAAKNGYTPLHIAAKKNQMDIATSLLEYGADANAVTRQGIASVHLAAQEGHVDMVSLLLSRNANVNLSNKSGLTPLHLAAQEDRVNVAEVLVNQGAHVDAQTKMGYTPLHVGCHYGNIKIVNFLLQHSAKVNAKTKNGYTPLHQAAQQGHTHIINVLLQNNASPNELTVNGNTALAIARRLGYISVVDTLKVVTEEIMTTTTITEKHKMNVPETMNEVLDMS

- Kd [1]: ~1000 nM
B1: AnkR entire C-terminal regulatory domain (residues 1529–1907) (domain or fragment, mouse, UniProt Q02357-6 1529-1907, looked up)
chain: RQSRNLKPERRHGDREYSLSPSQVNGYSSLQDELLSPASLQYALPSPLCADQYWNEVTVIDAIPLAATEHDTMLEMSDMQVWSAGLTPSLVTAEDSSLECSKAEDSDAIPEWKLEGAHSEDTQGPELGSQDLVEDDTVDSDATNGLADLLGQEEGQRSEKKRQEVSGTEQDTETEVSLVSGQQRVHARITDSPSVRQVLDRSQARTLDWDKQGSTAVHPQEATQSSWQEEVTQGPHSFQRRITTIQGPEPGALQEYEQVLVSTREHVQRGPPETGSPKAGKEPSLWAPESAFSQEVQGDELQNIPGEQVTEEQFTDEQGNIVTKKIIRKVVRQVDSSGAIDTQQHEEVELRGSGLQPDLIEGRKGAQIVKRASLKRGKQ
notes: also called full length AnkR C-terminal domain; C-terminal tail of AnkR; source: E. coli BL21 (DE3), purified

- Kd [2]: 460 nM
- Kd [3]: 400 nM
B2: AnkR_AS (48-residue auto-inhibitory segment of AnkR, residues 1577–1624) (domain or fragment, mouse, UniProt Q02357-6 1577-1624, looked up)
chain: CADQYWNEVTVIDAIPLAATEHDTMLEMSDMQVWSAGLTPSLVTAEDS
notes: Free AS in ITC; source: E. coli BL21 (DE3), purified

- Kd [4]: ~8000 nM
B3: Nav1.2 ABD-N (N-terminal 68-residue fragment of loop 2, residues 1035–1102) (domain or fragment)
chain: KALDEIKPLEDLNNKKDSCISNHTTIEIGKDLNYLKDGNGTTSGIGSSVEKYVVDESDYMSFINNPSL
